Molecular target: T1, recombinant full-length human CHD8 (human, UniProt Q9HCK8 1-2581)
T1 construct: CHD8, human, full length; no cleavage of the tag is described; also called full-length CHD8; full-length Chd8; source: Expi293F, transiently transfected, purified (StrepTactin XT 4-Flow resin)
Experiment: SPR; Biacore T200; CHD8 amine-coupled to a C1 chip (1585 RU), BSA-coupled reference cell; BCL11A injected 2.62-5737.5 nM (1:3 series), 600 s association, 300 s dissociation; 25 °C, HBS-P+ (10 mM HEPES, 150 mM NaCl, 0.05% Tween 20, pH 7.4); steady-state fit of responses at 600 s
Conditions: both partners purified

T1 sequence (Q9HCK8 whole entry): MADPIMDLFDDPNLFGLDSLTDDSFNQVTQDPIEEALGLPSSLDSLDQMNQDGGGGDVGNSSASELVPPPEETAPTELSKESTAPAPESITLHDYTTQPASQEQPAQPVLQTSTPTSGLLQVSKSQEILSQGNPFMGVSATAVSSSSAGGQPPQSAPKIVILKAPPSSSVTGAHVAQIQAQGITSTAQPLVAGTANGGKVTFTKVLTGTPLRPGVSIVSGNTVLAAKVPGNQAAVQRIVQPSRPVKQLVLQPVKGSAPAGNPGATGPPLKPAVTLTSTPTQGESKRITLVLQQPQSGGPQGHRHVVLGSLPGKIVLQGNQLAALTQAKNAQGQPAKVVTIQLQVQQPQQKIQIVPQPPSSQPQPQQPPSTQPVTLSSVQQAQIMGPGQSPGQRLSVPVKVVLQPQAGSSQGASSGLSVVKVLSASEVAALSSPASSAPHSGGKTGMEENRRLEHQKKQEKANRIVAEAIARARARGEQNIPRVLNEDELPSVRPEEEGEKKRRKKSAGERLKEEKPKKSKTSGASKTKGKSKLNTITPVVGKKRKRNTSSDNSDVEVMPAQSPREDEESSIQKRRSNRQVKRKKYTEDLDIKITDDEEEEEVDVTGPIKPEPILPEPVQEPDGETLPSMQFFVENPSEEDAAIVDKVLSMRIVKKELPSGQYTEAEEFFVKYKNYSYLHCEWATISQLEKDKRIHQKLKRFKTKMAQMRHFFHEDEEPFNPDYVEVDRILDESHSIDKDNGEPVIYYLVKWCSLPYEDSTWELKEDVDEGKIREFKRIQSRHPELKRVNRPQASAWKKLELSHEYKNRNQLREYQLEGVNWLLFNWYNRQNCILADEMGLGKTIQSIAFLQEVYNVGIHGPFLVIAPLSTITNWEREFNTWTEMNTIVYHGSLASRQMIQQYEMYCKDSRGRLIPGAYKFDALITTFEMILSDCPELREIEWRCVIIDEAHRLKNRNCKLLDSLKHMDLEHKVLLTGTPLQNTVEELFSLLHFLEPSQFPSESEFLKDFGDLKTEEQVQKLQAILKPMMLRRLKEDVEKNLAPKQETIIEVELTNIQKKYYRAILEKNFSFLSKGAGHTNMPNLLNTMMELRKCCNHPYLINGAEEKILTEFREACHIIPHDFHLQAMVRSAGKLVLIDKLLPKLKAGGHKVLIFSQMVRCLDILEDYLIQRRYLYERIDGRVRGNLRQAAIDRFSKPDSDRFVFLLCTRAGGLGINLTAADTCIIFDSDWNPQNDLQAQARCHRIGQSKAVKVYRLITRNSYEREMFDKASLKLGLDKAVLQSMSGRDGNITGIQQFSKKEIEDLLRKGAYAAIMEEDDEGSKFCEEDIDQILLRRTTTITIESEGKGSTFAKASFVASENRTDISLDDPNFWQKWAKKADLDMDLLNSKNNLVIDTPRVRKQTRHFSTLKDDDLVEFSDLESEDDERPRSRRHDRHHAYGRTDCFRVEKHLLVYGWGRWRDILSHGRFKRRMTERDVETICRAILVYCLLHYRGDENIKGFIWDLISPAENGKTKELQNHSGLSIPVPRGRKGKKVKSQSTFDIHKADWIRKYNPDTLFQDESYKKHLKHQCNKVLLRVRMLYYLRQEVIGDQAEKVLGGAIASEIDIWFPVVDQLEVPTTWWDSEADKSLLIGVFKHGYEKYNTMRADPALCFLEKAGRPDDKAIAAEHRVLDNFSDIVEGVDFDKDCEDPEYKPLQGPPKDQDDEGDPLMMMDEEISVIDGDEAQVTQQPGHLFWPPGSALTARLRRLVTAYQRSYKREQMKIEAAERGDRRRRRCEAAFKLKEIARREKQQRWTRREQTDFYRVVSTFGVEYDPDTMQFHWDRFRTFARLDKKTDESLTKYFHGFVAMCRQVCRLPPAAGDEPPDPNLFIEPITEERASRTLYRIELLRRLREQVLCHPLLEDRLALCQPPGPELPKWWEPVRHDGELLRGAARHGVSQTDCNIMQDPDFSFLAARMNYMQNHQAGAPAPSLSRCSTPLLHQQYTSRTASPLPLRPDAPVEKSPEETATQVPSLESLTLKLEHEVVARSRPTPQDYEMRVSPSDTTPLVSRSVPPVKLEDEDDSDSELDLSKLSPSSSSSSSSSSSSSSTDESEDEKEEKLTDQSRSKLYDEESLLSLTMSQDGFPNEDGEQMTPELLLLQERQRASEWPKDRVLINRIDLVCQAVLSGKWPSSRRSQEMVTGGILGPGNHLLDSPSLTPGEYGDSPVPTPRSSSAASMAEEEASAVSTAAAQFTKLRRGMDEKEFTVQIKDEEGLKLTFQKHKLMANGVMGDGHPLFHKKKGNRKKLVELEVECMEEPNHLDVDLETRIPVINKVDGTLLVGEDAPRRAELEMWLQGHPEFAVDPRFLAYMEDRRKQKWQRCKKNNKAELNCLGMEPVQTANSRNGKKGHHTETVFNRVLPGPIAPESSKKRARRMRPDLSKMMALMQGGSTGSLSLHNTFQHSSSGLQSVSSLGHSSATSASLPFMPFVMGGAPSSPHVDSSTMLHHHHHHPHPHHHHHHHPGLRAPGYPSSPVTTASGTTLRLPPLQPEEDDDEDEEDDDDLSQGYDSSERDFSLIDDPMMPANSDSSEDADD

Kd: 870 nM
B1: recombinant full-length human BCL11A (natural protein, UniProt Q9H165 1-835, looked up)
chain: MSRRKQGKPQHLSKREFSPEPLEAILTDDEPDHGPLGAPEGDHDLLTCGQCQMNFPLGDILIFIEHKRKQCNGSLCLEKAVDKPPSPSPIEMKKASNPVEVGIQVTPEDDDCLSTSSRGICPKQEHIADKLLHWRGLSSPRSAHGALIPTPGMSAEYAPQGICKDEPSSYTCTTCKQPFTSAWFLLQHAQNTHGLRIYLESEHGSPLTPRVGIPSGLGAECPSQPPLHGIHIADNNPFNLLRIPGSVSREASGLAEGRFPPTPPLFSPPPRHHLDPHRIERLGAEEMALATHHPSAFDRVLRLNPMAMEPPAMDFSRRLRELAGNTSSPPLSPGRPSPMQRLLQPFQPGSKPPFLATPPLPPLQSAPPPSQPPVKSKSCEFCGKTFKFQSNLVVHRRSHTGEKPYKCNLCDHACTQASKLKRHMKTHMHKSSPMTVKSDDGLSTASSPEPGTSDLVGSASSALKSVVAKFKSENDPNLIPENGDEEEEEDDEEEEEEEEEEEEELTESERVDYGFGLSLEAARHHENSSRGAVVGVGDESRALPDVMQGMVLSSMQHFSEAFHQVLGEKHKRGHLAEAEGHRDTCDEDSVAGESDRIDDGTVNGRGCSPGESASGGLSKKLLLGSPSSLSPFSKRIKLEKEFDLPPAAMPNTENVYSQWLAGYAASRQLKDPFLSFGDSRQSPFASSSEHSSENGSLRFSTPPGELDGGISGRSGTGSGGSTPHISGPGPGRPSSKEGRRSDTCEYCGKVFKNCSNLTVHRRSHTGERPYKCELCNYACAQSSKLTRHMKTHGQVGKDVYKCEICKMPFSVYSTLEKHMKKWHSDRVLNNDIKTE
notes: BCL11A, human, full length; no cleavage of the tag is described; also called full-length BCL11A; source: Expi293F, transiently transfected, purified (StrepTactin XT 4-Flow resin)
